Experimental data as given in US20240254246A1 (PROMETHEUS BIOSCIENCES, published 2024).
Where a chain is given by its changes, count along the chain named. Like-named read-outs stand apart in the source and are kept apart here. Blank lines part the entries; values can stand above or below the binder they belong to.

Legend:
[1] = target: T1, human CD30L expressed on cells (human, UniProt P32971 1-234); experiment: flow cytometry, B16-huCD30L cells
T1 construct: whole, on cells; also called huCD30L; B16-huCD30L cells
T1 sequence (looked up): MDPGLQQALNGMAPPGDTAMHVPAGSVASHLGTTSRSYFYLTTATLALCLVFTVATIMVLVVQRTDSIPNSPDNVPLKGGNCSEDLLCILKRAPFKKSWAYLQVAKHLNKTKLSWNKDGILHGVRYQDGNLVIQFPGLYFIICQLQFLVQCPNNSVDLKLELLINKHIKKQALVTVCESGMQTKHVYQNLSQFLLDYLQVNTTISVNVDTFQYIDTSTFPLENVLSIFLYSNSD
Description: Anti-CD30L antibody binding to a CD30L target was determined by flow cytometry, using B16 cells transfected to express human CD30L (compared to non-transfected B16), and using HEK293 cells transfected to express cynomolgus CD30L (compared to non-transfected HEK293). […] Cell surface bound antibodies were detected using a fluorescently labeled anti-human-IgG or anti-mouse IgG, depending on the Fc portion of the antibodies. After incubation with the secondary antibody, the cells were washed, fixed in a paraformaldehyde solution, and analyzed by flow cytometry to detect antibody binding.

[2] = target: T1, human CD30L expressed on cells; experiment: flow cytometry, blocking of huCD30 binding to B16-huCD30L cells
[3] = target: T2, cynomolgus CD30L expressed on HEK293 cells (cynomolgus, UniProt A0A7N9CVX7 1-234); experiment: cell-based or functional assay
T2 sequence: T1 sequence (looked up) with A19T, M20T, G32E, L41F, V75I, K78R, I204V, I227V

[4] = target: T1, human CD30L expressed on cells; experiment: cell-based or functional assay
[5] = target: T3, recombinant human CD30L protein (human, UniProt P32971 63-234); experiment: ELISA, huCD30L, 1/500 dil
T3 construct: also called rhCD30L; huCD30L (ELISA)
T3 sequence (looked up): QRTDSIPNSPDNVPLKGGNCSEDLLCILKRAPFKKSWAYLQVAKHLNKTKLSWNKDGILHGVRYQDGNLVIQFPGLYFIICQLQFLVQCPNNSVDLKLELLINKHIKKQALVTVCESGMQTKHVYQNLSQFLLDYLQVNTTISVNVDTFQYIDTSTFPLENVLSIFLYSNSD

[6] = target: T4, human CD30L expressed on cells (human, UniProt P32971 1-234); experiment: flow cytometry, huCD30L cells, 1/50 dil
T4 construct: also called huCD30L; B16-huCD30L
T4 sequence: T1 sequence (looked up)

[7] = target: T3, recombinant human CD30L protein; experiment: ELISA, huCD30L, 1/50 dil
[8] = target: T3, recombinant human CD30L protein; experiment: ELISA, huCD30L, 1/5000 dil
[9] = target: T5, cynomolgus CD30L expressed on cells (cynomolgus, UniProt A0A7N9CVX7 1-234); experiment: flow cytometry, cyCD30L cells, 1/50 dil
T5 construct: whole, on cells; also called cyCD30L; HEK293-cyCD30L
T5 sequence: T1 sequence (looked up) with A19T, M20T, G32E, L41F, V75I, K78R, I204V, I227V

[10] = target: T6, cynomolgus CD30L expressed on HEK293 cells (cynomolgus, UniProt A0A7N9CVX7 1-234); experiment: flow cytometry, binding to HEK293-cyCD30L cells
T6 construct: whole, on cells; also called HEK293-cyCD30L; HEK-cyCD30L
T6 sequence: T1 sequence (looked up) with A19T, M20T, G32E, L41F, V75I, K78R, I204V, I227V

[11] = target: T6, cynomolgus CD30L expressed on HEK293 …; experiment: cell-based or functional assay; remark: listed apart in the source
[12] = target: T7, human CD30L expressed on B16 cells (human, UniProt P32971 1-234); experiment: cell-based or functional assay
T7 sequence (looked up): T1 sequence (looked up)

[13] = target: T7, human CD30L expressed on B16 cells; experiment: flow cytometry, binding to B16-rhCD30L cells
[14] = target: T7, human CD30L expressed on B16 cells; experiment: flow cytometry, blocking of CD30-Fc on B16-huCD30L cells; competitor CD30-Fc
[15] = target: T6, cynomolgus CD30L expressed on HEK293 …; experiment: flow cytometry, blocking of CD30-Fc on HEK293-cyCD30L cells; competitor CD30-Fc
[16] = target: T8, recombinant human CD30L protein (human, UniProt P32971 63-234); experiment: ELISA, CD30 competitor, undil
T8 construct: Recombinant protein used in ELISA; also called huCD30L
T8 sequence (looked up): T3 sequence (looked up)

[17] = target: T9, recombinant cynomolgus CD30L protein (cynomolgus, UniProt A0A7N9CVX7 63-234); experiment: ELISA, 1/50 dil
T9 construct: Recombinant protein used in ELISA; also called cyCD30L
T9 sequence: T3 sequence (looked up) with V13I, K16R, I142V, I165V

[18] = target: T9, recombinant cynomolgus CD30L protein; experiment: ELISA, 1/5000 dil
[19] = target: T8, recombinant human CD30L protein; experiment: ELISA, CD30 competitor, 1/1000 dil
[20] = target: T8, recombinant human CD30L protein; experiment: ELISA, CD30 competitor, 1/10 dil
[21] = target: T9, recombinant cynomolgus CD30L protein; experiment: ELISA, 1/500 dil
[22] = target: T8, recombinant human CD30L protein; experiment: ELISA, CD30 competitor, 1/100 dil

B1: Clone 2, Mouse IgG (antibody, V domains shown)
VH: EVQLVESGGGLVQPGRSLRLSCAASGFNFDDYAMHWVRQAPGKGLEWVSGISWRSGNIGYAGSVKGRFTISRDNAKNSLYLQMNSLRPEDSALYYCAKDKGIGFNWNYEGFDYWGQGTLVTVSS
VL: DIQMTQSPSSLSASVGDRVTITCRASQGISNHLAWFQQKPGKAPKSLIYAASSLQSGVPSKFSGSGSGTDFTLTISSLQPEDFATYYCQQYVTYPLTFGGGTKVEIK
notes: Mouse IgG format
EC50 [1]: 1.21 nM | IC50 [2]: 1.84 nM | Inhibition of IL-8 release in a dual cell assay (HEK293-cyCD30L cells + K299 cells) IC50 [3]: 0.46 nM | Inhibition of IL-8 release in a dual cell assay (B16-huCD30L cells + K299 cells) IC50 [4]: 1.2 nM

B4: anti-CD30L Reference 1 antibody (antibody, human IgG1, lambda, V domains shown)
VH: QVQLQESGPGLVKPSETLSLTCTVSGGSISSYIWSWIRQPAGKGLEWIGRIYASGNTNYNPSLKSRVTISVDTSKNQFSLKLSSMTAADTAVYYCARDYRVAGTYYYYYGLDVWGQGTTVTVSS
VL: QSALTQPASVSGSPGQSITISCTGTSSDVGVYDYVSWYQQHPGKAPKLMIYEVSNRPSGVSNRFSGSKSGNTASLTISGLQTEDEADYYCSSYTSRSTWVFGGGTKLTVLG
EC50 [10]: 0.56 nM | Inhibition of IL-8 release in a dual cell assay (HEK293-cyCD30L cells + K299 cells) IC50 [11]: 0.79 nM | Inhibition of IL-8 release in a dual cell assay (B16-huCD30L cells + K299 cells) IC50 [12]: 1.61 nM | EC50 [13]: 1.12 nM | IC50 [14]: 1.84 nM | IC50 [15]: 0.73 nM

B5: Clone 1, Mouse IgG (antibody, V domains shown)
VH: QVQLQESGPGLVKPSETLSLTCTVSGGSISGYYWSWIRQPPVKGLEWIGYIFYSGYTKYNPSLKSRVTISVDTSKNQFSLKLSSVTAADTAVYYCARDRWDFDYWGQGALVTVSS
VL: AIQMTQSPSYLSASVGDRVTIACRASQGIRNNLGWYQQKPGKAPKLLIYAESSLQSGVPSRFSGSGSGTDFTLTISSLQPEDFATYYCLQDFNYPYTFGQGTKLEIK
notes: Mouse IgG format
EC50 [1]: 1.95 nM | IC50 [2]: 3.06 nM | Inhibition of IL-8 release in a dual cell assay (HEK293-cyCD30L cells + K299 cells) IC50 [3]: 0.55 nM | Inhibition of IL-8 release in a dual cell assay (B16-huCD30L cells + K299 cells) IC50 [4]: 1.99 nM

B7: Clone 1, Human IgG1 (antibody, V domains shown)
VH: B5 VH
VL: B5 VL
notes: Human IgG1 format
EC50 [1]: 1.41 nM | IC50 [2]: 1.35 nM | Inhibition of IL-8 release in a dual cell assay (HEK293-cyCD30L cells + K299 cells) IC50 [3]: 0.22 nM | Inhibition of IL-8 release in a dual cell assay (B16-huCD30L cells + K299 cells) IC50 [4]: 1.1 nM

B8: Clone 3 (antibody, V domains shown)
VH: B5 VH
VL: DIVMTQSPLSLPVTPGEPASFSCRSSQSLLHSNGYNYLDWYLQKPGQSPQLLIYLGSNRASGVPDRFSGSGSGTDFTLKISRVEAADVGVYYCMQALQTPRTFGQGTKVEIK
notes: Hybridoma screening sample; also called CLONE_3 (parental)
% inhibition [16]: 98% | Elisa Binding (OD) [17]: 3.2 OD | Elisa Binding (OD) [18]: 0.552 OD | % inhibition [19]: 3% | % inhibition [20]: 95% | Elisa Binding (OD) [21]: 2.35 OD | % inhibition [22]: 17%

The next lines start with the values.

OD [5]: 1.71 OD | MFI [6]: 280 MFI | OD [7]: 2.15 OD | OD [8]: 0.565 OD | MFI [9]: 57.6 MFI
B2: anti-CD30L clone 2 (antibody, V domains shown)
VH: B1 VH
VL: B1 VL
notes: From mice with humanized immunoglobulin locus; elsewhere tested as mouse IgG and human IgG1; also called clone 2 parental

EC50 [1]: 0.81 nM | IC50 [2]: 0.86 nM | Inhibition of IL-8 release in a dual cell assay (HEK293-cyCD30L cells + K299 cells) IC50 [3]: 0.24 nM | Inhibition of IL-8 release in a dual cell assay (B16-huCD30L cells + K299 cells) IC50 [4]: 0.6 nM
B3: Clone 2, Human IgG1 (antibody, V domains shown)
VH: B1 VH
VL: B1 VL
notes: Human IgG1 format

OD [5]: 2.54 OD | MFI [6]: 153 MFI | OD [7]: 3.5 OD | OD [8]: 0.662 OD | MFI [9]: 72.4 MFI
B6: anti-CD30L clone 3 (antibody, V domains shown)
VH: B5 VH
VL: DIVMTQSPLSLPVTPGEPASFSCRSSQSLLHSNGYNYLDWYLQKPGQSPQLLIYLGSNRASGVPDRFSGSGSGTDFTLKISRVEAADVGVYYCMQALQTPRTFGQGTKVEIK

OD [5]: 3.02 OD | MFI [6]: 208 MFI | OD [7]: 3.59 OD | OD [8]: 1.28 OD | MFI [9]: 77.3 MFI
B9: anti-CD30L clone 1 (antibody, V domains shown)
VH: B5 VH
VL: B5 VL
notes: From mice with humanized immunoglobulin locus; elsewhere tested as mouse IgG and human IgG1; also called clone 1 parental

OD [5]: 2.65 OD | MFI [6]: 151 MFI | OD [7]: 3.08 OD | OD [8]: 0.68 OD | MFI [9]: 67.8 MFI
B10: anti-CD30L clone 4 (antibody, V domains shown)
VH: QVQLVESGGGVVQPGRSLRLSCAASGFPFSSYGMHWVRQAPGKGLEWVTFIWFDGNNKDYADSVKGRFSVSRDNSKNTLYLQMNSLRADDTAVYYCARNGVYYGSGAYVDYWGQGTLVTVSS
VL: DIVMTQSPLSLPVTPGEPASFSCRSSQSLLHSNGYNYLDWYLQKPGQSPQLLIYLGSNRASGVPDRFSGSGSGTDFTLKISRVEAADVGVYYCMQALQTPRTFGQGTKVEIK

% inhibition [16]: 98% | Elisa Binding (OD) [17]: 2.58 OD | Elisa Binding (OD) [18]: 0.583 OD | % inhibition [19]: 0% | % inhibition [20]: 96% | Elisa Binding (OD) [21]: 2.38 OD | % inhibition [22]: 10%
B11: Clone 4 (antibody, V domains shown)
VH: B10 VH
VL: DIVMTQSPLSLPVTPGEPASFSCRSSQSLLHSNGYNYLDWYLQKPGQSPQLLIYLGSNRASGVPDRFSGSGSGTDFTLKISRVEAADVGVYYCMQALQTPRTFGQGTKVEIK
notes: Hybridoma screening sample; also called CLONE_4 (parental)
